The target in test [1] is ArtB (Salmonella enterica serovar Typhimurium DT104) (UniProt Q404H3). Description: co-purification of co-expressed subunits.
Test [2] shares this target. In words: ion exchange chromatography + SEC.
For test [3], the target named is ArtB-His6 (Salmonella enterica serovar Typhimurium DT104) (UniProt Q404H3). In words: crystal structure.
In test [4] the target is PltB-His6 (Salmonella Typhi) (UniProt Q8Z6A3). In words: crystal structure.

In publication PMC5705260 one finds stoichiometry N data, which are given here for three substances.

The term stoichiometry N denotes a count of units in the complex or per binding partner.

As to “ArtB (from UniProt Q404H3 1-141) (natural protein)”, the stoichiometry N in test [1] and in test [2] was 5 throughout. Substance “ArtB-His6 (from UniProt Q404H3 1-141) (natural protein)” came in with a stoichiometry N in test [3] of 5. Substance “PltB-His6 (from UniProt Q8Z6A3 1-137) (natural protein)” yielded a stoichiometry N in test [4] of 5.
